Assay [1] has as its target T1, human sodium-dependent phosphate transporter 2B (NaPi2b) (human, UniProt O95436 1-690).
T1 sequence: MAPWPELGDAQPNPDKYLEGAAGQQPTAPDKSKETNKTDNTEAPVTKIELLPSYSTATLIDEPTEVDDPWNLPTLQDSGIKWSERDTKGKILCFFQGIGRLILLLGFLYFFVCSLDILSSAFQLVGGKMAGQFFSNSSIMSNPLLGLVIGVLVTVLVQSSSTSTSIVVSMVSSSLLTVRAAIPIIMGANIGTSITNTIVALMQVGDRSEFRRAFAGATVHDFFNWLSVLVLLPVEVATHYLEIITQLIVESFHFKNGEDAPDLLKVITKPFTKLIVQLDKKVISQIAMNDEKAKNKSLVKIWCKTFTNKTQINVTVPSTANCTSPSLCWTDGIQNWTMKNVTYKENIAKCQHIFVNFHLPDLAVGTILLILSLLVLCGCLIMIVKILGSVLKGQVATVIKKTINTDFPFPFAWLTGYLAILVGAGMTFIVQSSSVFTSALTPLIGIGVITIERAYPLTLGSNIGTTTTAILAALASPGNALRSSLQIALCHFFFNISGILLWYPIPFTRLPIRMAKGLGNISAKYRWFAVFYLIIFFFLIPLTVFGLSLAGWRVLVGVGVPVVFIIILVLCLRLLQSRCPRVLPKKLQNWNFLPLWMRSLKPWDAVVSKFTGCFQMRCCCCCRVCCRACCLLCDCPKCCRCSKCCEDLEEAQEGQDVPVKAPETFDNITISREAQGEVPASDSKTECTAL
Kind of assay: cell-based or functional assay.

Assay [2] deals with T1, human sodium-dependent phosphate …. Kind of assay: flow cytometry, IGROV-1 cells (endogenous NaPi2b). As to the method: (§1) Briefly, HEK293-6e cells were transfected for ˜24 hours to transiently express human NaPi2b, cynomolgus or mouse NaPi2b, at 1 μg of DNA per 1 million cells. Following transfection, 50,000 cells per well were seeded in V-bottom 96-well plates and incubated with 200 nM of primary antibody for 18-24 hours at 4° C. to prevent internalization. Post-incubation, cells were washed and stained with anti-Human IgG Fc AF647 conjugate (Jackson Immuno Research Labs, West Grove, PA, Cat. No. 109-605-098, Lot. No. 124868) at 4° C. for 1 hour. Following staining and washing, fluorescence was detected by flow cytometry on BD LSRFortessa™ Cell Analyzer (BD Biosciences, Franklin Lake, NJ) with 10,000 minimum events collected per well. The AF647/APC-A GeoMean (fluorescence signal geometric mean, proportional to anti-Human AF647 binding) was calculated for the live singlet cell population for each primary antibody using FlowJo™ v8 software (BD Biosciences, Franklin Lake, NJ). The Bmax and Kd of each primary antibody were calculated using GraphPad Prism Version 9 (GraphPad Software, San Diego, CA)
(§2) The ability of ADCs to bind to cells expressing NaPi2b was assessed. […] Binding to endogenous high NaPi2b-expressing cell lines IGROV-1 and HCC-78 was assessed by flow cytometry according to methods described in Example 5.
Background: Flow cytometry measures light scatter and fluorescence of single cells or particles in a stream.

Assay [3] has the same target. Kind of assay: flow cytometry, HCC-78 cells (endogenous NaPi2b); apparent Kd. How it is done:
as §1, §2

For assay [4] the target is unchanged. Put plainly: flow cytometry, IGROV-1 cells (endogenous NaPi2b); apparent Kd. How it is done:
(§3) Briefly, cells were seeded at 50,000 cells/well in conical-bottom 96-well plates and treated with test antibody for 24 hours at 4° C. to prevent internalization. […] Following incubation, cells were washed and stained with anti-Human IgG Fc AF647 conjugate (Jackson Immuno Research Labs, West Grove, PA; Cat. No. 109-605-098) at 4° C. for 30 min. Following incubation and washing, fluorescence was detected by flow cytometry on a BD LSRFortessa™ Cell Analyzer (BD Biosciences, Franklin Lake, NJ) with 1,000 minimum events collected per well. The AF647/APC-A GeoMean (fluorescence signal geometric mean, proportional to anti-Human AF647 binding) was calculated for the live cell population using FlowJo™ Version 10.8.1 (BD Biosciences, Franklin Lake, NJ) and plotted for each test antibody using GraphPad Prism Version 9 (GraphPad Software, San Diego, CA).
(§4) The ability of the humanized antibody variants v38591 and v29456 to bind to NaPi2b expressed on cells was assessed on endogenous NaPi2b-expressing tumor cell lines IGROV-1 (ovarian adenocarcinoma) and TOV-21G (ovarian carcinoma) by flow cytometry.
(§5) Cellular binding was performed according to methods described in Example 13.

Assay [5] shares this target. Put plainly: flow cytometry, IGROV-1 cells (endogenous NaPi2b), 24 h at 4 °C. In a few lines: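 IGROV-1 cells were incubated with test antibody for 24 hours at 4° C to prevent internalization, then stained with anti-human IgG Fc AF647 for 30 min at 4° C. AF647 geometric mean fluorescence of live cells was measured by flow cytometry and plotted per antibody.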
For assay [6], the target named is T2, KLH (Sigma-Aldrich, H8283).
T2 construct: also called keyhole limpet hemocyanin
Kind of assay: non-specific binding ELISA, KLH coated at 5 µg/mL, antibody at 100 nM.
Protocol: NS-ELISA was carried out in Corning®96-well EIA/RIA Easy Wash™ Clear Flat Bottom Polystyrene High Bind Microplate coated overnight at 4° C. with 50 μL of Heparin (Sigma, H3149) diluted with 50 mM sodium carbonate pH 9.6 to a final concentration of 250 μg/mL. The plate was incubated for 2 days at room temperature, wells that were coated with heparin were not covered to allow air dry. […] 50 μL each of insulin, KLH, dsDNA and ssDNA were added to a 96 well plate, followed by the incubation at 37° C. for 2 h. The coating materials were removed, and the plate was blocked with 200 μL of Gibco™ PBS pH7.4, 0.1% Tween®20, and incubated for 1 h at room temperature with shaking at 200 rpm. The plate was washed 3 times with Gibco™ PBS pH7.4, 0.1% Tween 20. […] Reactions were stopped after approximately 10 minutes by adding 100 μL of 1 M HCl to each well, and absorbance was read at 450 nm. Binding scores were calculated as the ratio of the ELISA signal of the antibody (antibody-treated) to the signal of a well containing buffer instead of the primary antibody (untreated). The cutoffs considered for each binding molecule (ssDNA, KLH, insulin, dsDNA and heparin) were internally calculated, based on the average of Zymeworks Inc. produced antibodies and antibodies benchmarks published in the literature.

Assay [7] addresses T1, human sodium-dependent phosphate …. Put plainly: flow cytometry, HEK293-6e cells transfected with human NaPi2b; apparent Kd. How it is done: The binding cross-reactivity of humanized antibody variant v29456 to human, cynomolgus and mouse NaPi2b was assessed by flow cytometry using HEK293-6e transfected cells.
as §1

Assay [8] has the same target. Put plainly: flow cytometry on HCC-78 cells (endogenous NaPi2b), 4 C, anti-human IgG Fc AF647 detection. How it is done: as §1, §2
Assay [9] has the same target. Kind of assay: flow cytometry on IGROV-1 cells (endogenous NaPi2b), 4 C, anti-human IgG Fc AF647 detection. As to the method: as §1, §2
The target is the same in assay [10]. Kind of assay: flow cytometry on TOV-21G cells (endogenous NaPi2b), 24 h at 4 C, anti-human IgG Fc AF647 detection. How it is done:
as §3, §4, §5

This note sets out measurements from patent US20250277030A1 (Zymeworks, published 2025).

As usually defined, the EC50 (read off the curve) is the concentration needed to bring the measured effect to its halfway point. A higher EC50 (read off the curve) goes with a less potent agent.

B1: v29456 humanized anti-NaPi2b antibody (H1L2) (antibody, human IgG1, kappa)
heavy: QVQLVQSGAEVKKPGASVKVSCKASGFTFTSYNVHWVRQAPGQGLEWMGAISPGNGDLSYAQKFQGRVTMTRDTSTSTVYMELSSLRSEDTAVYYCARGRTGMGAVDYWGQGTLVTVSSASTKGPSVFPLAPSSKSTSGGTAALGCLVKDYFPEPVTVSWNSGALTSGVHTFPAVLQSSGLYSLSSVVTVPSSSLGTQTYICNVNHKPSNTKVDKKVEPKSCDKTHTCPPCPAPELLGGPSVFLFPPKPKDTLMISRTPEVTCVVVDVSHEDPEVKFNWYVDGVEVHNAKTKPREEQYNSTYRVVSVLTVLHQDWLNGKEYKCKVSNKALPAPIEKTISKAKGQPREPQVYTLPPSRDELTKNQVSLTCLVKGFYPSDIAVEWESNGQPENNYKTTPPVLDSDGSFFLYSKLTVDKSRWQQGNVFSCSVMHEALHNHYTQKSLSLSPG
light: DVQMTQSPSSLSASVGDRVTITCRASQDVYSYLNWYQQKPGKAVKLLIYYTSRLQSGVPSRFSGSGSGTDYTLTISSLQPEDFATYYCQQYNIFPWTFGQGTKLEIKRTVAAPSVFIFPPSDEQLKSGTASVVCLLNNFYPREAKVQWKVDNALQSGNSQESVTEQDSKDSTYSLSSTLTLSKADYEKHKVYACEVTHQGLSSPVTKSFNRGEC
Consider B1, for which the “Internalized Fluorescence Fold-Over Palivizumab, HCC-78, 5 hrs” value in [1] amounted to 25.3 fold. Further, the “Internalized Fluorescence Fold-Over Palivizumab, HCC-78, 24 hrs” value in [1] was determined as 59.9 fold. The “Internalized Fluorescence Fold-Over Palivizumab, NCI-H441, 5 hrs” value in assay [1] was determined as 2.4 fold. Further, the “Internalized Fluorescence Fold-Over Palivizumab, NCI-H441, 24 hrs” value in assay [1] was 4 fold. The “Bmax (MFI)” value in assay [2] stood at 78100 MFI; in assay [5], 40900 MFI. The Kd in assay [3] was 2.27 nM; in assay [4] it was 1.28 nM; in assay [7], 5.2 nM. The “NS-ELISA binding score (ratio of signal between antibody-treated and untreated)” value in assay [6] was determined as 1.37 ratio. Also, the “EC50 (read off the curve)” value in assay [8] is roughly 2 nM; in [9], roughly 0.6 nM; in assay [10], roughly 0.7 nM.
